Data set [1] addresses T1, A3Gctd-2K3A-E259A (UniProt Q9HC16 191-384, L234K;C243A;E259A;F310K;C321A;C356A). The data set is described as follows: MST.
Data set [2] addresses T1, A3Gctd-2K3A-E259A. The data set can be described thus: MST. The source holds these as a separate data set.

This is an account of results in PMC6698744.

Where two headings read alike, the source gives them in different places.

T1 sequence (Q9HC16 191-384 L234K/C243A/E259A/F310K/C321A/C356A): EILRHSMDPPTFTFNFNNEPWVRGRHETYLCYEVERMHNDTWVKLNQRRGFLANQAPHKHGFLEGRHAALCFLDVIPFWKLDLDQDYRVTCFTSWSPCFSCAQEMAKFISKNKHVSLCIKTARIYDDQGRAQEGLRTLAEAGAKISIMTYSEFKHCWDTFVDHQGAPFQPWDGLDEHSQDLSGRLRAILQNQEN

One may read the Kd as the equilibrium constant for the complex coming apart. Take AATCCCAAA (ssDNA) [5'-AATCCCAAA (substrate)]: the Kd in data set [1] amounted to 1570 ± 160 µM.

In the case of AATCCUAAA (ssDNA, deoxyuridine at position 6) [5'-AATCCdUAAA (intermediate product)], the affinity in data set [1], expressed as Kd, was 2170 ± 250 µM.

AATCCCAAA (ssDNA, ribocytidine at position 6, rest DNA) [5'-AATCCrCAAA] registered a dissociation constant Kd in data set [1] of 6650 ± 860 µM.

Molecule ATTCCCAATT (XNA, 2'-deoxy-2'-fluoroarabinocytidine at position 6, rest DNA) [5'-ATTCC(2'-F-ANA)CAATT] had a dissociation constant (Kd) in data set [2] of 1740 ± 490 µM.

For the molecule ATTCCCAATT (XNA, 2'-deoxy-2'-fluororibocytidine at position 6, rest DNA) [5'-ATTCC(2'-F-RNA)CAATT], binding in data set [1] was put at a Kd of 3760 ± 300 µM.
